Laboratory results as given in US20150374845A1.

What was measured:
Assay in all cases: cell-based or functional assay
[1] = molecular target: glycosylated dystroglycan of LARGE-expressing MDA-MB-231 human breast cancer cells and LN18 human glioma cells (human) (UniProt Q14118)
[2] = molecular target: human dystroglycan (WT DG) expressed by retrovirus in DG-knockout MEpG mammary epithelial cells (human) (UniProt Q14118)
[3] = molecular target: wild type human beta1 integrin re-expressed by retrovirus in beta1 integrin-knockout E3D1cre19 MECs (human) (UniProt P05556)
wild type human beta1 integrin re-expressed by retrovirus in beta1 integrin-knockout E3D1cre19 MECs (human), sequence (P05556 21-798): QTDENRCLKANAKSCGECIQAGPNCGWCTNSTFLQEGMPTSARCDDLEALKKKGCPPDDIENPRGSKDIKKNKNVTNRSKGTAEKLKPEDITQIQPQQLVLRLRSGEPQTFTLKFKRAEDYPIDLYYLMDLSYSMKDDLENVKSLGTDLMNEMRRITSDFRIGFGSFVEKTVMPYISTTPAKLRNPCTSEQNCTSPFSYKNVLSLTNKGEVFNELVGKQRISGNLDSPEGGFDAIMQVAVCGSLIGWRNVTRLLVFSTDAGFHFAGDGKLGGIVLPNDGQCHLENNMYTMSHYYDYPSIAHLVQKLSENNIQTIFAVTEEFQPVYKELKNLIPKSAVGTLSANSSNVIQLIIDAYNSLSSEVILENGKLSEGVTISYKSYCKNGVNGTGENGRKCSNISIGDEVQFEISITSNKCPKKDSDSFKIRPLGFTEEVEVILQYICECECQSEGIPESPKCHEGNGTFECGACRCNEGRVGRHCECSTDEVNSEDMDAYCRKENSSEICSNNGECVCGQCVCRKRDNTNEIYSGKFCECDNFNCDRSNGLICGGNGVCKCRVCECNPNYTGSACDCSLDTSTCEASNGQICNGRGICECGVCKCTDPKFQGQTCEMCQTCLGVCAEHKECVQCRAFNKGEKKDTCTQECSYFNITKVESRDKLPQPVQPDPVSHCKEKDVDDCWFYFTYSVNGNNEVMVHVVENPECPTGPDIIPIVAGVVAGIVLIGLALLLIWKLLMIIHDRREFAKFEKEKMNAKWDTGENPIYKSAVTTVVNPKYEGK

[4] = molecular target: hypoglycosylated dystroglycan of vector-infected MDA-MB-231 human breast cancer cells and LN18 human glioma cells (human) (UniProt Q14118)
[5] = molecular target: beta1 integrin on mammary epithelial cells (MECs) (UniProt P09055)
beta1 integrin on mammary epithelial cells (MECs), sequence (P09055 21-798 limits assumed): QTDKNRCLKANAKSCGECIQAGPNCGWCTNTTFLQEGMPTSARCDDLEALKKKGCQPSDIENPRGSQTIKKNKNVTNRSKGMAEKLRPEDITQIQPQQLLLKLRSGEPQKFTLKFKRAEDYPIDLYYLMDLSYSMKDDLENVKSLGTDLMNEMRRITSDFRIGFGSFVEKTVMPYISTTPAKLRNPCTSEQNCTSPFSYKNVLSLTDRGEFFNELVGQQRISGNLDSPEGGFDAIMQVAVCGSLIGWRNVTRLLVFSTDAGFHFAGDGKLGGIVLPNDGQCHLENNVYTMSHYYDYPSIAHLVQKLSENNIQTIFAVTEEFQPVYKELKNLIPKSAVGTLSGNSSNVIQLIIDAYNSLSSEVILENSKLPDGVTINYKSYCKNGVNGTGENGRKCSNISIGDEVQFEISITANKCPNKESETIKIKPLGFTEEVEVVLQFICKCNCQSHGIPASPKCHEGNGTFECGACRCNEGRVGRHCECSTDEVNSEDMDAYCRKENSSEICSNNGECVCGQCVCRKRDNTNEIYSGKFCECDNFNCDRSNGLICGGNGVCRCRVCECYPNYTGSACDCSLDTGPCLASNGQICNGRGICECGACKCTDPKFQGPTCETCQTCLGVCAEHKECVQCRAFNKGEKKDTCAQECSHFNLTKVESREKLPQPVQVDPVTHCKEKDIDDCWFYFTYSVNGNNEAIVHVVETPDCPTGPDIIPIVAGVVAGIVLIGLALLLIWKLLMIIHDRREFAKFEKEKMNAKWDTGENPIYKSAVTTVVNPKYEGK

Substance: rhodamine-labeled laminin-111, P19137 25-3083; P02469 22-1786; P02468 34-1607
- MFI of internalized Rhod-Ln, flow cytometry, LN18 cells [1]: 1.49 MFI
- MFI of internalized Rhod-Ln, flow cytometry, MDA-MB-231 cells [1]: 6.82 MFI
- increase in MFI of internalized laminin, LARGE-expressing against vector LN18 cells [1]: 10 fold
- increase in MFI of internalized laminin, LARGE-expressing against vector MDA-MB-231 cells [1]: 68 fold
- compiled MFI of internalized Rhod-Ln, DG-expressing against DG-lacking MEpG cells [2]: 4 fold
- compiled mean fluorescence intensity (MFI) of internalized Rhod-Ln, flow cytometry, MEpG cells [2]: 18 MFI
- laminin internalization, compiled mean fluorescence intensity flow cytometry data [2]: 380 % more
- MFI of internalized laminin, flow cytometry, E3D1cre19 cells [3]: 26.8 MFI
- change in laminin internalization on re-expression of WT β1 integrin in β1 int-/- cells [3]: 20 % increase

Substance: rhodamine-labeled laminin-111 (from UniProt P19137 25-3083; P02469 22-1786; P02468 34-1607) (ligand)
- MFI of internalized Rhod-Ln, flow cytometry, LN18 cells [4]: 0.145 MFI
- MFI of internalized Rhod-Ln, flow cytometry, MDA-MB-231 cells [4]: 0.1 MFI

Substance: Hat2/5 antibody
- Ln internalization, cellular fluorescence intensity of Rhod-Ln by flow cytometry, normalized to Ln alone control [5]: 36 % decrease
